Molecular target: the molecule itself
Test: cross-linking

Protein | stoichiometry N
Pseudomonas fluorescens esterase variant p2 (T3C) (enzyme) SCFVAKDGTQIYFKDWGSGKPVLFSHGWLLDADMWEYQMEYLSSRGYRTIAFDRRGFGRSDQPWTGNDYDTFADDIAQLIEHLDLKEVTLVGFSMGGGDVARYIARHGSARVAGLVLLGAVTPLFGQKPDYPQGVPLDVFARFKTELLKDRAQFISDFNAPFYGINKGQVVSQGVQTQTLQIALLASLKATVDCVTAFAETDFRPDMAKIDVPTLVIHGDGDQIVPFETTGKVAAELIKGAELKVYKDAPHGFAVTHAQQLNEDLLAFLKR | 3
Pseudomonas fluorescens esterase variant p3 (Q174C) (enzyme) STFVAKDGTQIYFKDWGSGKPVLFSHGWLLDADMWEYQMEYLSSRGYRTIAFDRRGFGRSDQPWTGNDYDTFADDIAQLIEHLDLKEVTLVGFSMGGGDVARYIARHGSARVAGLVLLGAVTPLFGQKPDYPQGVPLDVFARFKTELLKDRAQFISDFNAPFYGINKGQVVSCGVQTQTLQIALLASLKATVDCVTAFAETDFRPDMAKIDVPTLVIHGDGDQIVPFETTGKVAAELIKGAELKVYKDAPHGFAVTHAQQLNEDLLAFLKR | 3
Pseudomonas fluorescens esterase variant p4 (T3C and Q174C) (enzyme) SCFVAKDGTQIYFKDWGSGKPVLFSHGWLLDADMWEYQMEYLSSRGYRTIAFDRRGFGRSDQPWTGNDYDTFADDIAQLIEHLDLKEVTLVGFSMGGGDVARYIARHGSARVAGLVLLGAVTPLFGQKPDYPQGVPLDVFARFKTELLKDRAQFISDFNAPFYGINKGQVVSCGVQTQTLQIALLASLKATVDCVTAFAETDFRPDMAKIDVPTLVIHGDGDQIVPFETTGKVAAELIKGAELKVYKDAPHGFAVTHAQQLNEDLLAFLKR | 3

— publication PMC10857811 (Chem, 2024)
